How the values were obtained:
Experiment in all cases: EMSA; EMSA: 15 mM HEPES-KOH pH 7.5, 25 mM KCl, 0.25 mM EDTA, 6% glycerol, 2 mM DTT, 20 fmol probe (Methods print 20 fg), 0.2-0.8 ug protein, room temperature 30 min
Settings in all cases: protein: recombinant; tags: MBP (N-terminal); label: biotin as probe
[1] = target: T1, ACRE1 (Arabidopsis thaliana, UniProt Q9C591 1-216)
T1 sequence: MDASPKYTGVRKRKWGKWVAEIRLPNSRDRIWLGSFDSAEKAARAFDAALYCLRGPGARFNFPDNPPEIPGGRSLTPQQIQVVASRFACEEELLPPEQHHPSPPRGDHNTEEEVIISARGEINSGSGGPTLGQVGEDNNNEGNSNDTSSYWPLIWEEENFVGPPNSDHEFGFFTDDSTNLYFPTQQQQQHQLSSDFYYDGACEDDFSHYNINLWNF

[2] = target: T2, ACRE2 (ERF017) (Arabidopsis thaliana, UniProt Q84QC2 1-185)
T2 sequence: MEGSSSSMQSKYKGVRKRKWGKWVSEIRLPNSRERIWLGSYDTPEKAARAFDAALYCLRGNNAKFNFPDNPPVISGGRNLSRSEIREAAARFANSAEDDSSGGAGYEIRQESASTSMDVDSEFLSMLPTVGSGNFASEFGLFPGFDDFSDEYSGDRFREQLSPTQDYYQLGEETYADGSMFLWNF

[3] = target: T3, ORA47/ACRE3 (ERF018) (Arabidopsis thaliana, UniProt Q9S7L5 1-195)
T3 sequence: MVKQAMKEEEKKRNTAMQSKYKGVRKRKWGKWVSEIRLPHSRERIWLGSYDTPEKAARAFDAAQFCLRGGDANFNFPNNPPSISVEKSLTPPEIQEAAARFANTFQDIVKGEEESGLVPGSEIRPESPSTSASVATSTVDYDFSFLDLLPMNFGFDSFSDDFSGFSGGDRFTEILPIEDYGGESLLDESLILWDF

Measured: binding result

B1: BA (dsDNA)
DNA 1: CTAGTCTTAATGGACGGTATTGT
DNA 2: ACAATACCGTCCATTAAGACTAG
binds: all assays above

B2: SPO (dsDNA)
DNA 1: CTAGTACACTTGGACGGCCACAT
DNA 2: ATGTGGCCGTCCAAGTGTACTAG
binds: all assays above

B3: DRE (dsDNA)
DNA 1: TCGAGTAAATCATGTCGGTTGAAAG
DNA 2: CTTTCAACCGACATGATTTACTCGA
binds: all assays above
